T1: rat APOBEC-1 (endogenous, rat liver nuclear extract and McArdle cells) (rat)
T1 sequence (P38483 1-229, looked up): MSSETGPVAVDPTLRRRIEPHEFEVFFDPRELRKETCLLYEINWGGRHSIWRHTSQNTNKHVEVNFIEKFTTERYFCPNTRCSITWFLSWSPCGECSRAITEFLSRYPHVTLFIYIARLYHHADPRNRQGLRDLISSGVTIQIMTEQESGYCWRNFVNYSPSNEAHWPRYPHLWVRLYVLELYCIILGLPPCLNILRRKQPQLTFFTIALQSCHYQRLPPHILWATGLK

B1: HA epitope-tagged APOBEC-1 stably expressed in McArdle RH7777 cells (enzyme, UniProt P38483 1-229, looked up, not shown: small tags and cut ends)
chain: T1 sequence (P38483 1-229, looked up)
notes: also called HA-tagged APOBEC-1
B2: ACF of nuclear extract treated with calf intestinal alkaline phosphatase (CIAP) (other, rat, UniProt Q923K9-2 1-586, looked up)
chain: MESNHKSGDGLSGTQKEAALRALVQRTGYSLVQENGQRKYGGPPPGWDTTPPERGCEIFIGKLPRDLFEDELIPLCEKIGKIYEMRMMMDFNGNNRGYAFVTFSNKQEAKNAIKQLNNYEIRNGRLLGVCASVDNCRLFVGGIPKTKKREEILSEMKKVTEGVVDVIVYPSAADKTKNRGFAFVEYESHRAAAMARRRLLPGRIQLWGHPIAVDWAEPEVEVDEDTMSSVKILYVRNLMLSTSEEMIEKEFNSIKPGAVERVKKIRDYAFVHFSNREDAVEAMKALNGKVLDGSPIEVTLAKPVDKDSYVRYTRGTGGRNTMLQEYTYPLSHVYDPTTTYLGAPVFYTPQAYAAIPSLHFPATKGHLSNRALIRTPSVRGAAGVRGLGGRGYLAYTGLGRGYQVKGDKRQDKLYDLLPGMELTPMNTISLKPQGVKLAPQILEEICQKNNWGQPVYQLHSAIGQDQRQLFLYKVTIPALASQNPAIHPFTPPKLSAYVDEAKRYAAEHTLQTLGIPTEGGDAGTTAPTATSATVFPGYAVPSATAPVSTAQLKQAVTLGQDLAAYTTYEVYPTFAVTTRGDGYGTF
modifications: phosphates removed by CIAP treatment of the extract

For test [1], the target named is B2. In words: co-immunoprecipitation with ACF CT antibody from CIAP-treated McArdle nuclear extract, anti-HA western blot, densitometry (FIG. 2A).
Procedure: Control extracts were treated similarly but lacked phosphatase. […] (n=4, standard deviation+/−0.2). […] Data shown is representative of 3 independent experiments. *Statistical significance was determined to be P≦0.01 by unpaired t-test relative to control. […] Quantitation of relative amounts of ACF bound was performed using PhoshorImager scanning densitometry.
Test [2] addresses T1, rat APOBEC-1 (endogenous, rat liver …). Description: cell-based or functional assay.

As for B1, the “fold reduction of APOBEC-1 recovered with immunoprecipitated ACF (CIAP-treated against control nuclear extract)” value in test [1] turned out to be 3 fold. Take B2: the “fold decrease in in vitro ApoB mRNA editing activity of CIAP-treated nuclear extract (poisoned-primer extension)” value in test [2] was found to be 2.5 fold.

The values are drawn from patent publication US20090075925A1 (published 2009).
